Test results reported in the supplement of paper PMC10567573.

B1: SETD8 (parent)
chain: KKAQGKTQQNRKLTDFYPVRRSSR
B2: RSPH3 (parent)
chain: MTVKPAKAASLARNLAKRRRTYLG

Variants of: B1
Assay: protein stability index of a GFP-peptide fusion (GPS, HEK-293T) (PSI 1-6); higher = more stable
Conditions: c terminus: a fixed tail appended
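Further: lentivirally expressed fusions sorted by FACS into six bins by GFP to DsRed ratio, PSI derived from sequencing read proportions per bin multiplied by bin number.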

Variant	protein stability index
KKAQLKTQQNRKLTDFYPVRRSSR	2.77
KKAQNKTQQNRKLTDFYPVRRSSR	2.53
KKAQAKTQQNRKLTDFYPVRRSSR	1.87
KKAQDKTQQNRKLTDFYPVRRSSR	2.89
KKAQHKTQQNRKLTDFYPVRRSSR	1.83
KKAQIKTQQNRKLTDFYPVRRSSR	1.68
KKAQSKTQQNRKLTDFYPVRRSSR	2.62
KKAQVKTQQNRKLTDFYPVRRSSR	2.65
KKAQYKTQQNRKLTDFYPVRRSSR	2.92
KKAQEKTQQNRKLTDFYPVRRSSR	2.89
KKAQRKTQQNRKLTDFYPVRRSSR	1.44
VKAQGKTQQNRKLTDFYPVRRSSR	2.73
CKAQGKTQQNRKLTDFYPVRRSSR	1.22
GKAQGKTQQNRKLTDFYPVRRSSR	1.81
HKAQGKTQQNRKLTDFYPVRRSSR	1.54
RKAQGKTQQNRKLTDFYPVRRSSR	2.24
SKAQGKTQQNRKLTDFYPVRRSSR	2.88
IKAQGKTQQNRKLTDFYPVRRSSR	4.17
EKAQGKTQQNRKLTDFYPVRRSSR	1.97
WKAQGKTQQNRKLTDFYPVRRSSR	2.09
QKAQGKTQQNRKLTDFYPVRRSSR	1.99

Variant	protein stability index
MKAQGKTQQNRKLTDFYPVRRSSR	2.54
TKAQGKTQQNRKLTDFYPVRRSSR	2.62
LKAQGKTQQNRKLTDFYPVRRSSR	4.04
NKAQGKTQQNRKLTDFYPVRRSSR	2.13
FKAQGKTQQNRKLTDFYPVRRSSR	2.11
KKAQGDTQQNRKLTDFYPVRRSSR	2.54
KKAQGSTQQNRKLTDFYPVRRSSR	1.73
KKAQGITQQNRKLTDFYPVRRSSR	2.09
KKAQGFTQQNRKLTDFYPVRRSSR	2.16
KKAQGCTQQNRKLTDFYPVRRSSR	3.03
KKAQGMTQQNRKLTDFYPVRRSSR	1.62
KKAQGRTQQNRKLTDFYPVRRSSR	3.1
KKAQGTTQQNRKLTDFYPVRRSSR	3.58
KKAQGPTQQNRKLTDFYPVRRSSR	2.06
KKAQGHTQQNRKLTDFYPVRRSSR	1.57
KKAQGGTQQNRKLTDFYPVRRSSR	3.09
KKAQGWTQQNRKLTDFYPVRRSSR	2.33
KKAQGNTQQNRKLTDFYPVRRSSR	2.82
KKAQGATQQNRKLTDFYPVRRSSR	3.18
KKAQGVTQQNRKLTDFYPVRRSSR	2.25
KKLQGKTQQNRKLTDFYPVRRSSR	3.96

Variant	protein stability index
KKQQGKTQQNRKLTDFYPVRRSSR	2.4
KKGQGKTQQNRKLTDFYPVRRSSR	3.27
KKFQGKTQQNRKLTDFYPVRRSSR	2.93
KKSQGKTQQNRKLTDFYPVRRSSR	3.47
KKVQGKTQQNRKLTDFYPVRRSSR	3.41
KKRQGKTQQNRKLTDFYPVRRSSR	3.17
KKEQGKTQQNRKLTDFYPVRRSSR	3.01
KKWQGKTQQNRKLTDFYPVRRSSR	2.33
KKYQGKTQQNRKLTDFYPVRRSSR	2.73
KKIQGKTQQNRKLTDFYPVRRSSR	2.84
KKNQGKTQQNRKLTDFYPVRRSSR	3.12
KKTQGKTQQNRKLTDFYPVRRSSR	2.43
KKKQGKTQQNRKLTDFYPVRRSSR	2.72
KKDQGKTQQNRKLTDFYPVRRSSR	3.79
KKAIGKTQQNRKLTDFYPVRRSSR	3.18
KKAVGKTQQNRKLTDFYPVRRSSR	3.42
KKAGGKTQQNRKLTDFYPVRRSSR	2.22
KKALGKTQQNRKLTDFYPVRRSSR	3.69
KKASGKTQQNRKLTDFYPVRRSSR	1.13
KKAEGKTQQNRKLTDFYPVRRSSR	1.68
KKAYGKTQQNRKLTDFYPVRRSSR	2.18

Variant	protein stability index
KKACGKTQQNRKLTDFYPVRRSSR	1.64
KKADGKTQQNRKLTDFYPVRRSSR	4.69
KKAKGKTQQNRKLTDFYPVRRSSR	3.35
KKARGKTQQNRKLTDFYPVRRSSR	1.99
KKATGKTQQNRKLTDFYPVRRSSR	1.87
KKAHGKTQQNRKLTDFYPVRRSSR	2.73
KRAQGKTQQNRKLTDFYPVRRSSR	2.03
KSAQGKTQQNRKLTDFYPVRRSSR	2.12
KPAQGKTQQNRKLTDFYPVRRSSR	2.13
KLAQGKTQQNRKLTDFYPVRRSSR	1.57
KTAQGKTQQNRKLTDFYPVRRSSR	3.1
KQAQGKTQQNRKLTDFYPVRRSSR	1.83
KWAQGKTQQNRKLTDFYPVRRSSR	3.07
KDAQGKTQQNRKLTDFYPVRRSSR	2.65
KIAQGKTQQNRKLTDFYPVRRSSR	3.63
KYAQGKTQQNRKLTDFYPVRRSSR	2.43
KHAQGKTQQNRKLTDFYPVRRSSR	3.35
KGAQGKTQQNRKLTDFYPVRRSSR	3.04
KFAQGKTQQNRKLTDFYPVRRSSR	1.97
KNAQGKTQQNRKLTDFYPVRRSSR	2.56
KMAQGKTQQNRKLTDFYPVRRSSR	2.54

Variants of: B2
Assay: as above
Conditions: c terminus: a fixed tail appended

Variant	protein stability index
MTVKPAKAASLARNLAKRRCTYLG	1.91
MTVKPAKAASLARNLAKRRSTYLG	2.61
MTVKPAKAASLARNLAKRRDTYLG	3.08
MTVKPAKAASLARNLAKRRETYLG	2.81
MTVKPAKAASLARNLAKRRTTYLG	2.61
MTVKPAKAASLARNLAKRRFTYLG	1.96
MTVKPAKAASLARNLAKRRATYLG	2.41
MTVKPAKAASLARNLAKRRVTYLG	1.63
MTVKPAKAASLARNLAKRRYTYLG	1.51
MTVKPAKAASLARNLAKRRHTYLG	2.59
MTVKPAKAASLARNLAKRRITYLG	2.17
MTVKPAKAASLARNLAKRRPTYLG	2.81
MTVKPAKAASLARNLAKRRKTYLG	3.12
MTVKPAKAASLARNLAKRRMTYLG	2.72
MTVKPAKAASLARNLAKRRWTYLG	2.2
MTVKPAKAASLARNLAKRRLTYLG	1.81
MTVKPAKAASLARNLAKRRQTYLG	3.83
MTVKPAKAASLARNLAKRRNTYLG	2.94
MTVKPAKAASLARNLAKRRRHYLG	2.79
MTVKPAKAASLARNLAKRRRRYLG	3.18
MTVKPAKAASLARNLAKRRRDYLG	3.59
MTVKPAKAASLARNLAKRRRKYLG	3.9
MTVKPAKAASLARNLAKRRRMYLG	2.7
MTVKPAKAASLARNLAKRRRYYLG	2.13
MTVKPAKAASLARNLAKRRRIYLG	2.54
MTVKPAKAASLARNLAKRRRQYLG	3.21

Variant	protein stability index
MTVKPAKAASLARNLAKRRRVYLG	2.83
MTVKPAKAASLARNLAKRRRSYLG	3.26
MTVKPAKAASLARNLAKRRRPYLG	2.92
MTVKPAKAASLARNLAKRRRFYLG	1.93
MTVKPAKAASLARNLAKRRRGYLG	2.83
MTVKPAKAASLARNLAKRRRNYLG	2.98
MTVKPAKAASLARNLAKRRRWYLG	1.77
MTVKPAKAASLARNLAKRRRLYLG	2.98
MTVKPAKAASLARNLAKRRRCYLG	2.73
MTVKPAKAASLARNLAKRRREYLG	3.47
MTVKPAKAASLARNLAKRRRAYLG	3.09
MTVKPAKAASLARNLAKRLRTYLG	2.05
MTVKPAKAASLARNLAKRVRTYLG	1.45
MTVKPAKAASLARNLAKRKRTYLG	2.86
MTVKPAKAASLARNLAKRSRTYLG	2.51
MTVKPAKAASLARNLAKRMRTYLG	3.63
MTVKPAKAASLARNLAKRTRTYLG	2.52
MTVKPAKAASLARNLAKRYRTYLG	2.42
MTVKPAKAASLARNLAKRNRTYLG	2.37
MTVKPAKAASLARNLAKRQRTYLG	2.62
MTVKPAKAASLARNLAKRWRTYLG	1.64
MTVKPAKAASLARNLAKRPRTYLG	1.86
MTVKPAKAASLARNLAKRRRTYLH	2.7
MTVKPAKAASLARNLAKRRRTYLW	1.63
MTVKPAKAASLARNLAKRRRTYLQ	2.94
MTVKPAKAASLARNLAKRRRTYLN	3.18

Variant	protein stability index
MTVKPAKAASLARNLAKRRRTYLL	2.3
MTVKPAKAASLARNLAKRRRTYLK	2.68
MTVKPAKAASLARNLAKRRRTYLY	2.42
MTVKPAKAASLARNLAKRRRTYLI	2.35
MTVKPAKAASLARNLAKRRRTYLA	3.33
MTVKPAKAASLARNLAKRRRTYLD	2.04
MTVKPAKAASLARNLAKRRRTYLP	3.63
MTVKPAKAASLARNLAKRRRTYLV	2.17
MTVKPAKAASLARNLAKRRRTYLM	2.38
MTVKPAKAASLARNLAKRRRTYLR	3.46
MTVKPAKAASLARNLAKRRRTYLE	3.54
MTVKPAKAASLARNLAKRRRTYLT	3.42
MTVKPAKAASLARNLAKRRRTYLS	3.15
MTVKPAKAASLARNLAKRRRTYLC	2.64
MTVKPAKAASLARNLAKRRRTYLF	1.97
MTVKPAKAASLARNLAKRRRTYGG	4.13
MTVKPAKAASLARNLAKRRRTYCG	3.28
MTVKPAKAASLARNLAKRRRTYAG	3.98
MTVKPAKAASLARNLAKRRRTYTG	4.09
MTVKPAKAASLARNLAKRRRTYSG	4.5
MTVKPAKAASLARNLAKRRRTYIG	4.26
MTVKPAKAASLARNLAKRRRTYQG	4.34
MTVKPAKAASLARNLAKRRRTYKG	3.5
MTVKPAKAASLARNLAKRRRTYEG	4.43
MTVKPAKAASLARNLAKRRRTYFG	3.2
MTVKPAKAASLARNLAKRRRTYVG	2.96

Variant	protein stability index
MTVKPAKAASLARNLAKRRRTYYG	3
MTVKPAKAASLARNLAKRRRTYDG	3.71
MTVKPAKAASLARNLAKRRRTYHG	3.9
MTVKPAKAASLARNLAKRRRTYWG	3.34
MTVKPAKAASLARNLAKRRRTYRG	3.61
MTVKPAKAASLARNLAKRRRTYNG	3.5
MTVKPAKAASLARNLAKRRRTYPG	3.42
MTVKPAKAASLARNLAKRRRTYMG	3.53
MTVKPAKAASLARNLAKRRRTQLG	3.93
MTVKPAKAASLARNLAKRRRTELG	3.12
MTVKPAKAASLARNLAKRRRTVLG	3.99
MTVKPAKAASLARNLAKRRRTCLG	3.63
MTVKPAKAASLARNLAKRRRTDLG	3.31
MTVKPAKAASLARNLAKRRRTRLG	3.03
MTVKPAKAASLARNLAKRRRTGLG	4.24
MTVKPAKAASLARNLAKRRRTSLG	3.23
MTVKPAKAASLARNLAKRRRTILG	3.37
MTVKPAKAASLARNLAKRRRTHLG	3.84
MTVKPAKAASLARNLAKRRRTKLG	3.85
MTVKPAKAASLARNLAKRRRTTLG	3.88
MTVKPAKAASLARNLAKRRRTNLG	3.46
MTVKPAKAASLARNLAKRRRTPLG	3.26
MTVKPAKAASLARNLAKRRRTWLG	3.06
MTVKPAKAASLARNLAKRRRTFLG	3.25
MTVKPAKAASLARNLAKRRRTMLG	2.9
MTVKPAKAASLARNLAKRRRTALG	3.81
